Test results: publication PMC4739761, “AMPylation matches BiP activity to client protein load in the endoplasmic reticulum” (eLife, 2015)
Where no end group is shown, it is not given here.

B1: lucifer yellow-labeled BiP substrate peptide (HTFPAVLGSC) (peptide)
peptide: HTFPAVLGSC
modifications: also: lucifer yellow label, position not given here
notes: well-characterized BiP substrate peptide; also called LY-labeled substrate peptide; fluorescently-labeled substrate peptide
B2: hamster BiP (27-654, with a His6-tag), unmodified (natural protein)
chain: not shown
notes: BiP (GRP78), Chinese hamster (Cricetulus griseus), residues 27-654; numbers count on the precursor with its signal peptide (mature BiP is 19-654); also called wildtype (wt) BiP; GRP78; source: E. coli M15, purified (Ni-NTA); unmodified BiP from mock in vitro AMPylation reactions without enzyme served as control in the functional assays; not shown: His6, N-terminal, kept
B3: hamster BiP (27-654, with a His6-tag) AMPylated in vitro to completion on Thr518 (natural protein)
chain: not shown
modifications: AMPylated threonine at 518 (single AMP)
notes: BiP (GRP78), Chinese hamster (Cricetulus griseus), residues 27-654; numbers count on the precursor with its signal peptide (mature BiP is 19-654); also called BiP-AMP; AMPylated BiP; source: E. coli M15, purified (Ni-NTA); not shown: His6, N-terminal, kept

How the values were obtained:
Settings in all cases: both partners purified
[1] = target: B2; experiment: fluorescence polarisation; competitive dissociation: pre-formed complex of BiP or BiP-AMP (40 µM) and LY-labeled peptide (1 µM) in 1 mM ADP, 400-fold excess (0.4 mM) of unlabeled peptide added at t = 0; single phase decay fit of the first 60 min
[2] = target: B3; experiment: as above
[3] = target: B2; experiment: fluorescence polarisation; steady state: 1 µM lucifer yellow-labeled peptide with BiP or BiP-AMP at 0-40 µM, 1 mM ADP, 24 hr at 30°C, FP buffer (37.5 mM HEPES-KOH pH 7.4, 125 mM KCl, 7 mM MgCl2, 0.5 mM CaCl2, 125 mM imidazole, 0.05% Triton X-100); read at room temperature
[4] = target: B3; experiment: as above
[5] = target: B1; experiment: fluorescence polarisation; competitive dissociation: pre-formed complex of BiP or BiP-AMP (40 µM) and LY-labeled peptide (1 µM) in 1 mM ADP, 400-fold excess (0.4 mM) of unlabeled peptide added at t = 0; single phase decay fit of the first 60 min

B1
koff [1]: 0.000617 s⁻¹
koff [2]: 0.00353 s⁻¹
Kd [3]: 16.7 µM
Kd [4]: 11.5 µM

B2
half-life (t1/2) of the complex [5]: 19.3 min

B3
half-life (t1/2) of the complex [5]: 3.3 min

HTFPAVL (also called unlabeled peptide) [unlabeled substrate peptide (HTFPAVL)]
binding result [1]: binds
binding result [2]: binds
